Data on 1 molecule can be found in patent publication US8361442B2, “Oxime conjugates and methods for their formation and use” (The General Hospital Corporation, priority 2002, dated 2013).

Details of data set [1]: species or system mice and rats. The settings on record: in vivo. From the text: Biokinetics and biodistributions were studied by blood and tissue sampling in rats, mice and rabbits using ^111In labeled preparations at clinically relevant doses. Fast initial stages (if present) were studied by dynamic gamma-scintigraphy in anesthetized animals.
Biokinetics of unmodified polyals of various molecular weights were studied in normal mice, rats and rabbits. Biokinetics of model nanocarriers (PHF graft copolymers) and polyal-modified liposomes were studied in rats. Biokinetics of formylpeptide conjugates were studied in normal rabbits and rabbits with focal bacterial inflammation. Protein conjugates were studied in mice and rats.

Details of data set [2]: species or system CD1 mice. Particulars: mouse, in vivo, iv. The method, then:
For animal studies, protein conjugates were labeled with [^111In] after modification of the trypsin portion of conjugates with DTPA. EDC mediated coupling was carried out in aqueous solution at DTPA/EDC/Trypsin lysine residue ratio 500:50:1 at pH 7.5. The resultant DTPA-labeled conjugates were purified by gel chromatography on Sephadex G-25. DTPA to protein molar ratio, as determined by Cu(II) colorimetric assay at 775 nm was approximately 1:4. Unmodified proteins were labeled analogously.
Labeling was performed by transchelation from [^111In] citrate. The labeling solution was prepared by mixing carrier-free [^111In] indium chloride in 0.05 M HCl with a 20-fold volume excess of 0.5 M sodium citrate, pH=5.6. The resultant [^111In] indium citrate solution was added to unbuffered solutions of DTP-modified polymers at 0.2 to 1 mCi of [^111In] per 1 mg of dry substance. The labeled conjugates were separated by gel chromatography on Sephadex G-25, with simultaneous media replacement to sterile isotonic saline. […]
Mice were euthanized at 0.25, 0.5, 1, 2, 4, and 8 hours (n=2). Blood samples and harvested organs (hart, lungs, liver, spleen, kidneys, adrenal glands, stomach, GI, testes, muscle, bone, brain and tail) were analyzed on gamma counter. The amount of radioactivity per organ was expressed as a percentage of the injected dose per gram tissue.

B1: Trypsin: Bovine pancreatic trypsin (EC 3.4.21.4) Type III; DTPA-modified, 111In-labeled for animal studies (protein, UniProt P00760 24-246, looked up)
Serine protease 1: IVGGYTCGANTVPYQVSLNSGYHFCGGSLINSQWVVSAAHCYKSGIQVRLGEDNINVVEGNEQFISASKSIVHPSYNSNTLNNDIMLIKLKSAASLNSRVASISLPTSCASAGTQCLISGWGNTKSSGTSYPDVLKCLKAPILSDSSCKSAYPGQITSNMFCAGYLEGGKDSCQGDSGGPVVCSGKLQGIVSWGSGCAQKNKPGVYTKVCNYVSWIKQTIASN
modifications: DTPA-modified, 111In-labeled
notes: Bovine pancreatic trypsin (EC 3.4.21.4) Type III; DTPA-modified, 111In-labeled for animal studies
For B1, in data set [1], the “blood half-life of unmodified protein” value amounted to 7 min. Moreover, in data set [2], the “clearance of activity from blood within 15 minutes after administration” value came to 80% and the “half-life of secondary monoexponential clearance” value was 4 ± 0.8 h.
